Measurements taken from IntAct's records for PubMed 20562859.

B1: Gamma-aminobutyric acid receptor-associated protein (Homo sapiens), O95166 (parent)
chain: MKFVYKEEHPFEKRRSEGEKIRKKYPDRVPVIVEKAPKARIGDLDKKKYLVPSDLTVGQFYFLIRKRIHLRAEDALFFFVNNVIPPTSATMGQLYQEHHEEDFFLYIAYSDESVYGL
B2: Gamma-aminobutyric acid receptor-associated protein (Homo sapiens), O95166 (parent)
chain: B1 chain
partner: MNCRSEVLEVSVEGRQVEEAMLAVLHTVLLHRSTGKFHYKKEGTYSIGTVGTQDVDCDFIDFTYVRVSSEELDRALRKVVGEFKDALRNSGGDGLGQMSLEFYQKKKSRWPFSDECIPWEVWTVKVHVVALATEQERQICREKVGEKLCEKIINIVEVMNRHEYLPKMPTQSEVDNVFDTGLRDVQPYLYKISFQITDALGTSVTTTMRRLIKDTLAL
B3: Gamma-aminobutyric acid receptor-associated protein (Homo sapiens), O95166 (parent)
chain: B1 chain
partner: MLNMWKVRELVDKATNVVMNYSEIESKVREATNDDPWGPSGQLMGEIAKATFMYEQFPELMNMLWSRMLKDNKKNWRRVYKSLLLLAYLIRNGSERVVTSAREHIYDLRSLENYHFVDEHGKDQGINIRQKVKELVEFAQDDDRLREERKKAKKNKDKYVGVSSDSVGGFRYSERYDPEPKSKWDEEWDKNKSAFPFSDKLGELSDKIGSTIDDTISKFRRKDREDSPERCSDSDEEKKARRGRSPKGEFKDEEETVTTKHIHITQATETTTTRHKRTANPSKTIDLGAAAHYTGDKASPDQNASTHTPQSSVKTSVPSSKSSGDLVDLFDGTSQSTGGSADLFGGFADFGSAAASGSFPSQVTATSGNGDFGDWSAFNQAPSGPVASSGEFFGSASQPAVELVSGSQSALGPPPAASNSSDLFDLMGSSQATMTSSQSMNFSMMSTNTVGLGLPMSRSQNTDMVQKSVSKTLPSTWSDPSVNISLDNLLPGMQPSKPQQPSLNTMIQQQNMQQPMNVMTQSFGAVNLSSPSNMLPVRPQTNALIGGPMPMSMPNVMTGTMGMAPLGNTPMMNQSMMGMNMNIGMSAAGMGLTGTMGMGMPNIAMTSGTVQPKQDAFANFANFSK
B4: Gamma-aminobutyric acid receptor-associated protein (Homo sapiens), O95166 (parent)
chain: B1 chain
partner: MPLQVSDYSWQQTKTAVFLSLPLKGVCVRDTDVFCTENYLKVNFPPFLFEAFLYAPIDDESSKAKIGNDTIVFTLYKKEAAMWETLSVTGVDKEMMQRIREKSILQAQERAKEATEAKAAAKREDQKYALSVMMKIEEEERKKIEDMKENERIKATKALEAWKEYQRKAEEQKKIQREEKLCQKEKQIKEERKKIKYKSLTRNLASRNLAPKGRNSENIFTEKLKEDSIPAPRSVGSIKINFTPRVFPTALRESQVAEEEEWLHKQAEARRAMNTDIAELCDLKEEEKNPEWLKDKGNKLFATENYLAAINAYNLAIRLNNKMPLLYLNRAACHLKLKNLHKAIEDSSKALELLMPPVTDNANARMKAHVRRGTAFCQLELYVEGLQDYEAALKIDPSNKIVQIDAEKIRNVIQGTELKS
B5: Gamma-aminobutyric acid receptor-associated protein (Homo sapiens), O95166 (parent)
chain: B1 chain
partner: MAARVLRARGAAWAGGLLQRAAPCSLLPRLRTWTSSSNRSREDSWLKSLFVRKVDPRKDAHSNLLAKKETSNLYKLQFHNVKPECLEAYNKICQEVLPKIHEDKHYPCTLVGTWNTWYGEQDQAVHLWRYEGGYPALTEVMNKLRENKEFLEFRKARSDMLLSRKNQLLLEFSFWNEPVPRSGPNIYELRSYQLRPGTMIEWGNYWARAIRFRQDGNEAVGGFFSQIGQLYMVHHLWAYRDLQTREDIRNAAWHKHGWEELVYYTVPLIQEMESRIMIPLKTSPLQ
B6: Gamma-aminobutyric acid receptor-associated protein (Homo sapiens), O95166 (parent)
chain: B1 chain
partner: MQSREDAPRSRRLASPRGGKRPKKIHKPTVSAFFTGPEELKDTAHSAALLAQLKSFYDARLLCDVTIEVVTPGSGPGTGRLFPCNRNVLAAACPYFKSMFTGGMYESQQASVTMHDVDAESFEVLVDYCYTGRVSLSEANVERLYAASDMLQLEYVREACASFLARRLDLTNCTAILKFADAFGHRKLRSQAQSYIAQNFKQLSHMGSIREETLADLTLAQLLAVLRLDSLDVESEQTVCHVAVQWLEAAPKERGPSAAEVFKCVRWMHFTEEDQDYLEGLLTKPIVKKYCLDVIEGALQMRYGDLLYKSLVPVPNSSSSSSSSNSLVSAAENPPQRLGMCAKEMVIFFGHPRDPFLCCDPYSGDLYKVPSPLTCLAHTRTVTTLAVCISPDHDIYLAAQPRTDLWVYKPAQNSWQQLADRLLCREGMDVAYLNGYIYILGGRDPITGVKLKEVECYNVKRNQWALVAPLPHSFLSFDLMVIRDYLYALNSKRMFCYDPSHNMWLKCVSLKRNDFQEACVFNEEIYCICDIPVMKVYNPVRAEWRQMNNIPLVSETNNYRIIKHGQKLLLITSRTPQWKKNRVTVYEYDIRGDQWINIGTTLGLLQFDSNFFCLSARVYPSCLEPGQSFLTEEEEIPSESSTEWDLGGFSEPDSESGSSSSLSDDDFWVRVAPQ
B7: Gamma-aminobutyric acid receptor-associated protein (Homo sapiens), O95166 (parent)
chain: B1 chain
partner: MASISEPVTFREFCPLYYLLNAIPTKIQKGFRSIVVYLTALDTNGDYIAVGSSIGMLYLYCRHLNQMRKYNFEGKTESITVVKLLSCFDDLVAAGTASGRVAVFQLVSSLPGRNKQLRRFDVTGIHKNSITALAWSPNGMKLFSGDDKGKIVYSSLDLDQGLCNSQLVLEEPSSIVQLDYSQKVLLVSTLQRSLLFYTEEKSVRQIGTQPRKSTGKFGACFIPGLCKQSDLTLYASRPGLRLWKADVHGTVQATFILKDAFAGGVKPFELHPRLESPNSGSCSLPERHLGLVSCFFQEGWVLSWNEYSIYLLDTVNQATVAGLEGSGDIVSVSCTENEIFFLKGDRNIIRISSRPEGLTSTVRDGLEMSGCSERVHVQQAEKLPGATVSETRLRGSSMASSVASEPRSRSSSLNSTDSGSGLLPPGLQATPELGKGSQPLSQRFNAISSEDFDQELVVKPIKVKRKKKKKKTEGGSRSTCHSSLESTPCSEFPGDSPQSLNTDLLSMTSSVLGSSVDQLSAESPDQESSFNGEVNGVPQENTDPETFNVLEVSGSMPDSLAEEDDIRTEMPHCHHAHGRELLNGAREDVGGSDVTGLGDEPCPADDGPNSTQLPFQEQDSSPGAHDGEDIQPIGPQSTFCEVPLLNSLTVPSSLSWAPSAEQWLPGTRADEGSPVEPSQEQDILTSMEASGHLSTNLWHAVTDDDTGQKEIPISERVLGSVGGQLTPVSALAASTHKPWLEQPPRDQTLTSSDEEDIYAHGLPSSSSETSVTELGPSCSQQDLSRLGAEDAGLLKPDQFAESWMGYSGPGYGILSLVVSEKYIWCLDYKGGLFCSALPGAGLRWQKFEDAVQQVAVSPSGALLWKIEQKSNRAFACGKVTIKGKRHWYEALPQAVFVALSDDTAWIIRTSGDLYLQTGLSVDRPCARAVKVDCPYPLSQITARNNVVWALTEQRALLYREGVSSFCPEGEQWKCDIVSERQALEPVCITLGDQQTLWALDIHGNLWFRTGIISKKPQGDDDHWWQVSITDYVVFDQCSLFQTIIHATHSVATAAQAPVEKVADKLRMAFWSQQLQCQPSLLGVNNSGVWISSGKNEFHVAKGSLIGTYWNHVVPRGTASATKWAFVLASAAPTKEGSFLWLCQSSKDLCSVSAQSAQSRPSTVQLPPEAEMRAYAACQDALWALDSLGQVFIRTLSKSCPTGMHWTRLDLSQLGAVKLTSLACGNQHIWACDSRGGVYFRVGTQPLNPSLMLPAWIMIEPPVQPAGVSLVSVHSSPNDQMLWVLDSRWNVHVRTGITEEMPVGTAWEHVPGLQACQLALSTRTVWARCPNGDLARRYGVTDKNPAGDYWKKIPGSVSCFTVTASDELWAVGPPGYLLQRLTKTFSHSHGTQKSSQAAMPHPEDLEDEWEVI
B8: Gamma-aminobutyric acid receptor-associated protein (Homo sapiens), O95166 (parent)
chain: B1 chain
partner: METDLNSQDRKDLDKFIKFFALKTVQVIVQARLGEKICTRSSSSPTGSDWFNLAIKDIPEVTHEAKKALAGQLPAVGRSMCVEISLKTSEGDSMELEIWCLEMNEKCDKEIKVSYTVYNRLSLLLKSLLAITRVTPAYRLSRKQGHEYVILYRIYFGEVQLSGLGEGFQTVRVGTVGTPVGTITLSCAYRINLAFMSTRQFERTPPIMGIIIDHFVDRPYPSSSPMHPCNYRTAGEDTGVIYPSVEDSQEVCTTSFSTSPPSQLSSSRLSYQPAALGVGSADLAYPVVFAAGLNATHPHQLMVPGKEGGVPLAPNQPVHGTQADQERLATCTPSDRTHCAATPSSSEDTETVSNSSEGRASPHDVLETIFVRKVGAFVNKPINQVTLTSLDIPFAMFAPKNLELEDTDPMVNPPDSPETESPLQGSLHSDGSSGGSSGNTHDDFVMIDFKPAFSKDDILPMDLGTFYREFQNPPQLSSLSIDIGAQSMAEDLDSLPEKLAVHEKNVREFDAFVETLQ

Variants of: B1
Conditions: with atg2a_human ATG2A

Row | Variant | effect of a mutation on the interaction
1 | Y49A;L50A | decreasing interaction

Variants of: B1
Conditions: with atg3_human ATG3, Q9NT62
Chain of atg3_human ATG3, Q9NT62 (Q9NT62 whole entry): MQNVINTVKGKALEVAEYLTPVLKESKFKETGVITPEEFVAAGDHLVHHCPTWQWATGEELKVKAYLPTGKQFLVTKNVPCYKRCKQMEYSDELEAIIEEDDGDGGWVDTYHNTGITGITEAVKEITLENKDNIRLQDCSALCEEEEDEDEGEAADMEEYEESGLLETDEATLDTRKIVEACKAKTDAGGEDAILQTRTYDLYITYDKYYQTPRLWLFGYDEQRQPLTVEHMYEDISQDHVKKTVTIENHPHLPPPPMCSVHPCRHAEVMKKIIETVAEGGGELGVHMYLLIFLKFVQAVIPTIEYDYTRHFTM

Row | Variant | effect of a mutation on the interaction
2 | Y49A;L50A | disrupting interaction

Variants of: B1
Conditions: with echa_human HADHA

Row | Variant | effect of a mutation on the interaction
3 | Y49A;L50A | decreasing interaction

Variants of: B1
Conditions: with nedd4_human NEDD4, P46934
Chain of nedd4_human NEDD4, P46934 (P46934 whole entry): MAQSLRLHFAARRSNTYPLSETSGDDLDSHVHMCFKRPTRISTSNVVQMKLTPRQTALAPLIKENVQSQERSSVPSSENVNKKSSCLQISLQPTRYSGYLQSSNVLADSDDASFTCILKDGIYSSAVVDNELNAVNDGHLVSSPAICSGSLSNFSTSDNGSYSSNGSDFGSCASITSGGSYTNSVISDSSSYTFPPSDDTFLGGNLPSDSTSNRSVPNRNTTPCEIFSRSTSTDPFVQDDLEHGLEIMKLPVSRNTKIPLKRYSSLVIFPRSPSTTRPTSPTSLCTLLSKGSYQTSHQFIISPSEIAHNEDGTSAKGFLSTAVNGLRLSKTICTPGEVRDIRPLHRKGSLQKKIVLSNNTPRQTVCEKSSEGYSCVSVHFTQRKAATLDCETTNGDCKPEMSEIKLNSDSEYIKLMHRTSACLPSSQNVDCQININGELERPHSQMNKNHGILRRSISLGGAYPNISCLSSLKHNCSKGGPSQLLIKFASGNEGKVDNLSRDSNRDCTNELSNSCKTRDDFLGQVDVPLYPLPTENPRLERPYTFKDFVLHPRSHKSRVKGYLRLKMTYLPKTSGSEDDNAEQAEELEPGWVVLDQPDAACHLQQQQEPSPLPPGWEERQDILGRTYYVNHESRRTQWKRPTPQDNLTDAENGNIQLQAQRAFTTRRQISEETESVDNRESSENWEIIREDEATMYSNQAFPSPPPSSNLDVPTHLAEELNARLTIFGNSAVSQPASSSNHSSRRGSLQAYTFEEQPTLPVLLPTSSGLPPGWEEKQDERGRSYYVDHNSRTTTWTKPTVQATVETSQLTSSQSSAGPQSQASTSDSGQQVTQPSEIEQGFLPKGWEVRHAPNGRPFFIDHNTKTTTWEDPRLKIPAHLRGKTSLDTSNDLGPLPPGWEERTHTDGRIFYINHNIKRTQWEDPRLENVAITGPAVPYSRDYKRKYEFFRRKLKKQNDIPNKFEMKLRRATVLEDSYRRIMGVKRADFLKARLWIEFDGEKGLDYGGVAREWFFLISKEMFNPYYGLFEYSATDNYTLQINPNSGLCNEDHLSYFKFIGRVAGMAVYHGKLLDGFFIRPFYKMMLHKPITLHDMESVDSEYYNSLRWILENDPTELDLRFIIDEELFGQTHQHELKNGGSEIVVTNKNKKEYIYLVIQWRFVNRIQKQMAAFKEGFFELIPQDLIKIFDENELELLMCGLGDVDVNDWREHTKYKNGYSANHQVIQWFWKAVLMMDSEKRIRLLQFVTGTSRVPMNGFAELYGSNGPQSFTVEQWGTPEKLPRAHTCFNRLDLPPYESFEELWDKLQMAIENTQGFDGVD

Row | Variant | effect of a mutation on the interaction
4 | Y49A;L50A | disrupting interaction

Variants of: B2
Conditions: with atga1_human ATG101, Q9BSB4

Row | Variant | effect of a mutation on the interaction
5 | Y49A;L50A | increasing interaction
6 | R71A | increasing interaction

Variants of: B3
Conditions: with epn4_human CLINT1, Q14677

Row | Variant | effect of a mutation on the interaction
7 | Y49A;L50A | decreasing interaction

Variants of: B4
Conditions: with daaf4_human DNAAF4, Q8WXU2

Row | Variant | effect of a mutation on the interaction
8 | Y49A;L50A | decreasing interaction

Variants of: B5
Conditions: with nips2_human NIPSNAP2, O75323

Row | Variant | effect of a mutation on the interaction
9 | Y49A;L50A | increasing interaction

Variants of: B6
Conditions: with kbtb6_human KBTBD6, Q86V97

Row | Variant | effect of a mutation on the interaction
10 | Y49A;L50A | decreasing interaction

Variants of: B7
Conditions: with tcpr2_human TECPR2, O15040

Row | Variant | effect of a mutation on the interaction
11 | Y49A;L50A | decreasing interaction

Variants of: B8
Conditions: with atg13_human ATG13, O75143

Row | Variant | effect of a mutation on the interaction
12 | Y49A;L50A | decreasing interaction
